Molecular target: MAP1B, endogenous, rat striatum (rat, UniProt P15205 2-2461, limits assumed)
Experiment: co-immunoprecipitation (anti-Gα, then anti-MOR) from rat striatum, Western blot

Sequence of MAP1B, endogenous, rat striatum (P15205 2-2461 limits assumed): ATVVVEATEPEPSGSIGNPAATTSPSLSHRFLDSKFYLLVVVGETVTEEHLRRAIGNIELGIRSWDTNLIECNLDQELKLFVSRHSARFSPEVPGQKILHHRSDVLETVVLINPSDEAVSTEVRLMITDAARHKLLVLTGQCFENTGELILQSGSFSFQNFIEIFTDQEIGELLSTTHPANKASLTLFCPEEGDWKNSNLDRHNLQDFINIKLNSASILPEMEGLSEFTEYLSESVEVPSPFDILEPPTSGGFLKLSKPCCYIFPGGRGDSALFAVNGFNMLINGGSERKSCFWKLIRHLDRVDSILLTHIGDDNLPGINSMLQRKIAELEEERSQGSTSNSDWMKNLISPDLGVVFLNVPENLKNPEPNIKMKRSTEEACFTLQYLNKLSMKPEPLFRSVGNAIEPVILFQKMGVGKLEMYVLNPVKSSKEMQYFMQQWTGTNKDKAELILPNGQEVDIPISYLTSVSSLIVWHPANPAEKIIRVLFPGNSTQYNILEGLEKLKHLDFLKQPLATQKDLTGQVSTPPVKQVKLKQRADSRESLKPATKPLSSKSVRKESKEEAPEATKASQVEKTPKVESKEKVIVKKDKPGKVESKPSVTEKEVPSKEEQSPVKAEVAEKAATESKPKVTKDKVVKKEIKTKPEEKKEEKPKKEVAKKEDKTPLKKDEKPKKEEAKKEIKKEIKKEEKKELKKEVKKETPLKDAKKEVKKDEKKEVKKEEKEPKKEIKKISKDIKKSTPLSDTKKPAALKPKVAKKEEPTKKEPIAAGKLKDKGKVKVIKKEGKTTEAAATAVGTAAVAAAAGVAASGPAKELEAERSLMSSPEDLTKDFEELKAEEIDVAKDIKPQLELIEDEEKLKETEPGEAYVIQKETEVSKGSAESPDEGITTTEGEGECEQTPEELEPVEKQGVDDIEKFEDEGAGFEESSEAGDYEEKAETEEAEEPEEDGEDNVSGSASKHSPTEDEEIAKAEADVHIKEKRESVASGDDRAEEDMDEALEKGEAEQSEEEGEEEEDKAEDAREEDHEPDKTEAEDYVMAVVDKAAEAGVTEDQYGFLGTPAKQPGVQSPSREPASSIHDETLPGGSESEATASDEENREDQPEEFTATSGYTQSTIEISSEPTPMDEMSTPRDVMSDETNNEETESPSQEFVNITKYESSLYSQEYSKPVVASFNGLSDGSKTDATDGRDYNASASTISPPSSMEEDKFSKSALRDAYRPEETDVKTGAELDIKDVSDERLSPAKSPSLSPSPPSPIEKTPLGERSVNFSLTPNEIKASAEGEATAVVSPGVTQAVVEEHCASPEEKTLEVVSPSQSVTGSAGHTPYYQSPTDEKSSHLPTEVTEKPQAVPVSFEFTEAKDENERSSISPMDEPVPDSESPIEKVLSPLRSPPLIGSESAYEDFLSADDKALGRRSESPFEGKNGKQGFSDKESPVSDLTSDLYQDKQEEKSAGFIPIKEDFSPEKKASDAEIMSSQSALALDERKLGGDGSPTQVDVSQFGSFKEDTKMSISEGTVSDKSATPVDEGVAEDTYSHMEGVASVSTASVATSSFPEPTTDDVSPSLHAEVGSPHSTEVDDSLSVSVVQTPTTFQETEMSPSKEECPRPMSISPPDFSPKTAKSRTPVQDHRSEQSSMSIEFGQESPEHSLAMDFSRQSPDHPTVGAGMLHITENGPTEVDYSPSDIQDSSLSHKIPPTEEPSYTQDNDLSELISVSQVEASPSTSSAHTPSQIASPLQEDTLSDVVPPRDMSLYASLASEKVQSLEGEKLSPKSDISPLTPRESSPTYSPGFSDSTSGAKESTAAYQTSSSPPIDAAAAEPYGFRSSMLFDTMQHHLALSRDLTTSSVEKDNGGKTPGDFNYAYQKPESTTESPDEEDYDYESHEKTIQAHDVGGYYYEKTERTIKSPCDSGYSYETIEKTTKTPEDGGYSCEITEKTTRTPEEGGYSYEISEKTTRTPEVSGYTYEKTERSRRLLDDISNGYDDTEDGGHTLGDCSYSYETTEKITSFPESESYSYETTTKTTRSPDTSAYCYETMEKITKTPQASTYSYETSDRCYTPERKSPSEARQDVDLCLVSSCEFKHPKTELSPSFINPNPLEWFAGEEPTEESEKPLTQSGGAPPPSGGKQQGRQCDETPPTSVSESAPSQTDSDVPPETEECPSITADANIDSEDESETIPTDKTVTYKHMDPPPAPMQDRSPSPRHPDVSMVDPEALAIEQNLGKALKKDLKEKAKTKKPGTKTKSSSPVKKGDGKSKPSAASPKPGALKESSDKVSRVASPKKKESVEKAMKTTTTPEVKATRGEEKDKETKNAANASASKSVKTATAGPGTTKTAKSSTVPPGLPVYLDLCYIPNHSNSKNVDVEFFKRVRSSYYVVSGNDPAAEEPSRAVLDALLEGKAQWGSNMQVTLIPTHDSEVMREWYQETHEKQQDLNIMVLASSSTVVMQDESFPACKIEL

B1: mu opioid receptor (MOR), endogenous, rat striatum (receptor, UniProt P33535 1-398, looked up)
chain: MDSSTGPGNTSDCSDPLAQASCSPAPGSWLNLSHVDGNQSDPCGLNRTGLGGNDSLCPQTGSPSMVTAITIMALYSIVCVVGLFGNFLVMYVIVRYTKMKTATNIYIFNLALADALATSTLPFQSVNYLMGTWPFGTILCKIVISIDYYNMFTSIFTLCTMSVDRYIAVCHPVKALDFRTPRNAKIVNVCNWILSSAIGLPVMFMATTKYRQGSIDCTLTFSHPTWYWENLLKICVFIFAFIMPVLIITVCYGLMILRLKSVRMLSGSKEKDRNLRRITRMVLVVVAVFIVCWTPIHIYVIIKALITIPETTFQTVSWHFCIALGYTNSCLNPVLYAFLDENFKRCFREFCIPTSSTIEQQNSTRVRQNTREHPSTANTVDRTNHQLENLEAETAPLP
notes: Endogenous receptor immunoprecipitated with anti-MOR or detected with anti-MOR in anti-Gα immunoprecipitates; also called µ opioid receptor
Question: Does B1 bind?
Answer: Result: no binding

Source: patent US20090191579A1 (PAIN THERAPEUTICS, published 2009)
